Measured values taken from US20250368734A1 (ANTENGENE BIOLOGICS, published 2025).

T1: mouse GPRC5D (mouse, UniProt Q9JIL6 1-344)
T1 construct: whole, on cells; HEK293T-mGPRC5D cells; also called mGPRC5D; murine GPRC5D
T1 sequence (looked up): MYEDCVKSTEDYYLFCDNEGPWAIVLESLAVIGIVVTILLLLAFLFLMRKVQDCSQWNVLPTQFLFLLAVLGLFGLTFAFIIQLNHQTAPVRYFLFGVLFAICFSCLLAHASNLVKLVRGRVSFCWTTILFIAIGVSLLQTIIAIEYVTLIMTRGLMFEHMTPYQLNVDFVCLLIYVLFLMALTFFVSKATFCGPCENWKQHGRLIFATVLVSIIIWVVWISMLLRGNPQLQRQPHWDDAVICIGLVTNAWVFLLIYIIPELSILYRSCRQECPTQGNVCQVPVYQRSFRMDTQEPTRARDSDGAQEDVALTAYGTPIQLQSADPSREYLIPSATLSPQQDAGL


Tests used:
human GPRC5D [1] = biological target: T2, human GPRC5D (human, UniProt Q9NZD1 1-345); experiment: cell-based or functional assay
T2 sequence (Q9NZD1 whole entry): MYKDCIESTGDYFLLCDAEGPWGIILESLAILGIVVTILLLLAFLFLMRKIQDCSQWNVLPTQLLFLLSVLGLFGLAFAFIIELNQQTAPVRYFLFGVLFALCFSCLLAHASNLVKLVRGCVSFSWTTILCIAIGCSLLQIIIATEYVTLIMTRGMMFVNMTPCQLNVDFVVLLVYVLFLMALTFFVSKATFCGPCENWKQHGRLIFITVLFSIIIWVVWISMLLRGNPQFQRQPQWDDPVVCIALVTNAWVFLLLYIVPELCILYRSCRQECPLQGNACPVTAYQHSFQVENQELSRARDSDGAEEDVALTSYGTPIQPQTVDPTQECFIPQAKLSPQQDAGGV

mouse GPRC5D = biological target: T1, mouse GPRC5D; experiment: FACS, HEK293T-mGPRC5D cells
Text: (§1) The subcloning plates were screened by Mirrorball assay and the subclones with good binding ability were expanded to 24-wells for confirmation tests. The specificity and cross-reactivity of these subclones were confirmed with FACS analysis. Briefly, parental HEK293T, HEK293T cells stably over-expressing human GPRC5D protein (i.e., HEK293T-hGPRC5D), HEK293T cells stably over-expressing cynomolgus monkey GPRC5D protein (i.e., HEK293T-cynoGPRC5D), HEK293T cells stably over-expressing mouse GPRC5D protein (i.e., HEK293T-mGPRC5D), and OPM2 cells were incubated with antibodies produced by each subclone, respectively. Fluorescent dye-conjugated secondary antibody was used to detect the binding of the primary antibody with the cells. Median fluorescence intensity (MFI) was measured by FACS analysis,
(§2) As a result, 21 antibodies were discovered with unique sequences showing positive binding with HEK293T-hGPRC5D and OPM2 cells. Among which, some clones could also bind with HEK293T-cynoGPRC5D and/or HEK293T-mGPRC5D. […] ATG596 was a positive human IgG1 control antibody which comprises a VH region having an amino acid sequence as set forth in SEQ ID NO: 199, and a VL region having an amino acid sequence as set forth in SEQ ID NO: 200.

human GPRC5D [2] = biological target: T2, human GPRC5D; experiment: FACS, OPM-2 cells
Text: as §1, §2

cynomolgus monkey GPRC5D = biological target: T3, cynomolgus monkey GPRC5D (cynomolgus monkey); experiment: FACS, HEK293T-cynoGPRC5D cells
T3 construct: whole, on cells; HEK293T-cynoGPRC5D cells; also called cynoGPRC5D
Text: as §1, §2

human GPRC5D [3] = biological target: T2, human GPRC5D; experiment: FACS, HEK293T-hGPRC5D cells
Text: as §1, §2

| Binder | EC50 (human GPRC5D [1]) | Top killing % (human GPRC5D [1]) | further results |
| --- | --- | --- | --- |
| Bis-26E2H6 (bispecific antibody) chain 1: EVQLVESGGDLVKPGGSLKLSCAASGFTFSSYGMSWVRQTPDKRLEWVATISSGGSYTYYPDSVKGRFTISRDNAKNTLYLQMSSLKSEDTAMYYCARHATDYWGQGTTLTVSS chain 2: GGGGSGGGGSGGGGSEVQLVESGGGLVQPGRSLRLSCAASGFTFDNYAMHWVRQAPGKGLEWVSGISWNSGSIGYADSVKGRFTISRDNAKNSLYLQMNSLRAEDTALYYCAKDSRGYGDYSRGGAYWGQGTLVTVSSEIVMTQSPATLSVSPGERATLSCRASQSVSSNLAWYQQKPGQAPRLLIYGASTRATGIPARFSGSGSGTEFTLTISSLQSEDFAVYYCQQYNNWPWTFGQGTKVEIK chain 3: QIVLTQSPAIMSASPGEKVTMTCSASSSVSYMHWYQQKSGTSPKRWIYDTSKLASGVPARFSGSGSGTSYSLTISSMEAEDAATYYCQQWSSNPLTFGAGTKLELK | 30.5 nM | 79.1% | – |
| Bis-15D6G2 (bispecific antibody) chain 1: EVQLVESGGDLVKPGGYLRLSCAASGFTFSSHGMSWVRQTPDKRLEWVATISSGGRNTYYPDSVKGRFTISRDNAKNILYLQMSSLKSEDTAMFYCTRHSGDAMDYWGQGTSVTVSS chain 2: GGGGSGGGGSGGGGSEVQLVESGGGLVQPGRSLRLSCAASGFTFDNYAMHWVRQAPGKGLEWVSGISWNSGSIGYADSVKGRFTISRDNAKNSLYLQMNSLRAEDTALYYCAKDSRGYGDYSRGGAYWGQGTLVTVSSEIVMTQSPATLSVSPGERATLSCRASQSVSSNLAWYQQKPGQAPRLLIYGASTRATGIPARFSGSGSGTEFTLTISSLQSEDFAVYYCQQYNNWPWTFGQGTKVEIK chain 3: DILLTQSPAILSVSPGERVSFSCRASQSIGTNIHWYQQRTNGSPRLLIKYASESISGIPSRFSGSGSGTDFTLSINSVESEDIADYYCQQSKSWPTFGGGTKLEIK | 6.69 nM | 45.9% | – |
| 98A3A8 (antibody, V domains shown, Mouse monoclonal antibody from hybridoma subclone) VH: EVQLQQSGPELVKPGASVKMSCKASGYTFTYYVTHWVRQKPGQGLEWIGYINPYNDGTMFNEKFKGKATLTSDKSSSTAYMEFSSLTSEDSAVFYCARGGVRRYFDVWGAGTTVTVSS VL: DIQMTQSPSSLSASLGERVSLTCRASQDIGSNLNWLQQKPDGTIKRLIYATSSLDSGVPKRFSGSRSGSDYSLTINSLESEDFVDYYCLQYASFPYTFGGGTKLEIK | – | – | % Positive (mouse GPRC5D): 89.4%; MFI (mouse GPRC5D): 566; % Positive (human GPRC5D [2]): 98.7%; MFI (human GPRC5D [2]): 962; % Positive (cynomolgus monkey GPRC5D): 95.3%; MFI (cynomolgus monkey GPRC5D): 2070; % Positive (human GPRC5D [3]): 93.2%; MFI (human GPRC5D [3]): 2070 |
| 101B3G3 (antibody, V domains shown, Mouse monoclonal antibody from hybridoma subclone) VH: EVQLQQSGPELVKPGASMKISCKASGYSFTGYTMNWVKQSHGKNLEWIGLINPYNGGTRYNQKFKDKATLTVDKSSSTAYMELLSLTSEDSAVYYCARWLLRYAMDYWGQGTSVTVSS VL: DIVMTQSQKFMSTSVGDRVSITCKASQNVGNAVAWYQQKPGHSPKLLISSASNRKNGVPDRFTGSGSGTDFTLTVSNMQSEDLADYFCQQYSDSSWTFGGGTKLEIK | – | – | % Positive (mouse GPRC5D): 85.2%; MFI (mouse GPRC5D): 1480; % Positive (human GPRC5D [2]): 99.6%; MFI (human GPRC5D [2]): 1370; % Positive (cynomolgus monkey GPRC5D): 57.4%; MFI (cynomolgus monkey GPRC5D): 585; % Positive (human GPRC5D [3]): 97.9%; MFI (human GPRC5D [3]): 27100 |

Further lines, with some results ahead:

| EC50 (human GPRC5D [1]) | Binder | Top killing % (human GPRC5D [1]) | further results |
| --- | --- | --- | --- |
| 1.9 nM | Bis-83A9B8 (bispecific antibody) chain 1: EVQLQQSGPELVKPGASVKMSCKASGYTFSNYVIHWVKQKPGQGLEWIGYFNPYNDGSKYNEKFKGKATLTSDKSSSTAYMELSSLTSEDSAVYYCARGGVRRYFDVWGAGTTVTVSS chain 2: GGGGSGGGGSGGGGSEVQLVESGGGLVQPGRSLRLSCAASGFTFDNYAMHWVRQAPGKGLEWVSGISWNSGSIGYADSVKGRFTISRDNAKNSLYLQMNSLRAEDTALYYCAKDSRGYGDYSRGGAYWGQGTLVTVSSEIVMTQSPATLSVSPGERATLSCRASQSVSSNLAWYQQKPGQAPRLLIYGASTRATGIPARFSGSGSGTEFTLTISSLQSEDFAVYYCQQYNNWPWTFGQGTKVEIK chain 3: DIQMTQSPSSLSASLGERVSLTCRASQDIGDNLNWLQQEPDGTIKRLIYATFSLDSGVPKRFSGSRSGSVYSLTISRLESEDFVDYFCLHYASFPYTFGGGTKLEIK | 66.9% | – |
| 1.88 nM | Bis-116G1G4 (bispecific antibody) chain 1: EVQLQQSGPELVKPGASVKMSCKASGYTFTYYIMHWVKQEPGQGLQWIGYINPYNDGAYYSARFKGKATLTSDKSSSTAYMDLTSLTSEDSAVYYCARGGVRRYFDVWGAGTTVTVSS chain 2: GGGGSGGGGSGGGGSEVQLVESGGGLVQPGRSLRLSCAASGFTFDNYAMHWVRQAPGKGLEWVSGISWNSGSIGYADSVKGRFTISRDNAKNSLYLQMNSLRAEDTALYYCAKDSRGYGDYSRGGAYWGQGTLVTVSSEIVMTQSPATLSVSPGERATLSCRASQSVSSNLAWYQQKPGQAPRLLIYGASTRATGIPARFSGSGSGTEFTLTISSLQSEDFAVYYCQQYNNWPWTFGQGTKVEIK chain 3: DIQMTQSPSSLSASLGERVILTCRASQDIGSNLIWLQQKPDGTIKRLIYATFNLDSGVSKRFSGSRSGSDYSLTISSLDSEDFVDYYCLQYASSPYTFGGGTKLEIK | 69.2% | – |
| 2.34 nM | Bis-96C9E7 (bispecific antibody) chain 1: EVQLQQSGPELVKPGASVKMSCKASGYTFTYYILHWVKQKPGQGLEWIGYFNPYNDGNKFNERFRGKATLTSDKSSSTAYMELNSLTSEDSAVYFCARGGVRRYFDVWGAGTTVTVSS chain 2: GGGGSGGGGSGGGGSEVQLVESGGGLVQPGRSLRLSCAASGFTFDNYAMHWVRQAPGKGLEWVSGISWNSGSIGYADSVKGRFTISRDNAKNSLYLQMNSLRAEDTALYYCAKDSRGYGDYSRGGAYWGQGTLVTVSSEIVMTQSPATLSVSPGERATLSCRASQSVSSNLAWYQQKPGQAPRLLIYGASTRATGIPARFSGSGSGTEFTLTISSLQSEDFAVYYCQQYNNWPWTFGQGTKVEIK chain 3: DIQMTQSPSSLSASLGERVSLTCRASQDIGSNLNWLQQEPDGTIKRLISATFSLDSGVPKRFSGSRSGSDYSLTISSLESEDFVNYYCLQYASFPYTFGGGTKLEIK | 66.2% | – |
| 2.95 nM | Bis-98A3A8 (bispecific antibody) chain 1: EVQLQQSGPELVKPGASVKMSCKASGYTFTYYVTHWVRQKPGQGLEWIGYINPYNDGTMFNEKFKGKATLTSDKSSSTAYMEFSSLTSEDSAVFYCARGGVRRYFDVWGAGTTVTVSS chain 2: GGGGSGGGGSGGGGSEVQLVESGGGLVQPGRSLRLSCAASGFTFDNYAMHWVRQAPGKGLEWVSGISWNSGSIGYADSVKGRFTISRDNAKNSLYLQMNSLRAEDTALYYCAKDSRGYGDYSRGGAYWGQGTLVTVSSEIVMTQSPATLSVSPGERATLSCRASQSVSSNLAWYQQKPGQAPRLLIYGASTRATGIPARFSGSGSGTEFTLTISSLQSEDFAVYYCQQYNNWPWTFGQGTKVEIK chain 3: DIQMTQSPSSLSASLGERVSLTCRASQDIGSNLNWLQQKPDGTIKRLIYATSSLDSGVPKRFSGSRSGSDYSLTINSLESEDFVDYYCLQYASFPYTFGGGTKLEIK | 64.4% | – |
| 1.44 nM | Bis-108C4C12 (bispecific antibody) chain 1: EVQLQQSGPELVKPGASVKMSCKASGYTFTSYVIHWVKQKTGQGLEWIGYFNPYNDGTKYNEEFKGKATLTSDKSSNTAYMELNSLTSDDSAVYFCARGGVRRYFDVWGAGTTVTVSS chain 2: GGGGSGGGGSGGGGSEVQLVESGGGLVQPGRSLRLSCAASGFTFDNYAMHWVRQAPGKGLEWVSGISWNSGSIGYADSVKGRFTISRDNAKNSLYLQMNSLRAEDTALYYCAKDSRGYGDYSRGGAYWGQGTLVTVSSEIVMTQSPATLSVSPGERATLSCRASQSVSSNLAWYQQKPGQAPRLLIYGASTRATGIPARFSGSGSGTEFTLTISSLQSEDFAVYYCQQYNNWPWTFGQGTKVEIK chain 3: DIQMTQSPSSLSASLGERVSLTCRASQDIGSNLNWLQQEPDGTIKRLIYATFGLDSGVPKRFSGSRSGSDYSLTISSLESEDFVDYYCQQYASFPYTFGGGTKLEIK | 67.9% | – |
| 3.62 nM | Bis-110B4H5 (bispecific antibody) chain 1: EVQLQQSGPELVKPGASVKMSCKASGYTFTFYIMHWVKQKPGQGPEWIGYINPYNDGTKYNAKFKGKATLSSDRSSSTAYMELSSLTSEDSAVYYCARGGVRRYFDVWGAGTPVTVSS chain 2: GGGGSGGGGSGGGGSEVQLVESGGGLVQPGRSLRLSCAASGFTFDNYAMHWVRQAPGKGLEWVSGISWNSGSIGYADSVKGRFTISRDNAKNSLYLQMNSLRAEDTALYYCAKDSRGYGDYSRGGAYWGQGTLVTVSSEIVMTQSPATLSVSPGERATLSCRASQSVSSNLAWYQQKPGQAPRLLIYGASTRATGIPARFSGSGSGTEFTLTISSLQSEDFAVYYCQQYNNWPWTFGQGTKVEIK chain 3: DIQMTQSPSSLSASLGERVSLTCRSSQDIGSNLNWLQQEPDGTIKRLIYATFSLDSGVPKRFSGSRSGSHYSLTISSLESEDFVVYYCLQYGSFPYTFGGGTKLEIK | 61.5% | – |
